According to patent US20160362487A1 (Regeneron, published 2016):
Positions count from the first letter of the chain named. Numbers in names are those of the source.

T1: human IL-33 (R&D Systems, #3625-IL-010/CF) (human, UniProt O95760 112-270)
T1 sequence (looked up): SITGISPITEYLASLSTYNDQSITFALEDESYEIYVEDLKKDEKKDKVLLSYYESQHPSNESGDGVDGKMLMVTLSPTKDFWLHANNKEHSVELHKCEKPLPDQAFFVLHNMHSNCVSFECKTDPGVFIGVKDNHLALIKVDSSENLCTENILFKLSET

B1: H4H9662P (antibody, V domains shown)
VH: EVQLVESGGGLVQPGGSLRLSCAASGFTFSSYALTWVRQAPGKGLEWVSFISGSGGRPFYADSVKGRFTISRDNSKNMLYLQMNSLRAEDTAIYYCAKSLYTTSWYGGFDSWGQGTLVTVSS
VL: DIQMTQSPSSVSASVGDRVTITCRASQGVVSWLAWYQQKPGKAPKLLIYAASSLQSGVPSRFSGSGSGTDFTLTISSLQPEDFATYYCQQSNSFPFTLGPGTKVDIK
notes: Human IgG4 Fc (H4H)
B2: H4H9665P (antibody, human IgG4, V domains shown)
VH: EVQLVESGGGLVQPGGSLRLSCAASGFTFSNYAMTWVRQAPGKGLEWVSTISGSGDNTYYADSVQGRFTISRGHSKNTLYLQMNSLRAEDTAVYYCAKPTYSRSWYGAFDFWGQGTMVTVSS
VL: B1 VL with V29I, V30S, K45Q, S53R, S63W, S91A, S93N, L98F
notes: Human IgG4 Fc (H4H)
B3: H4H9659P (antibody, human IgG4, V domains shown)
VH: QVQLVQSGAEVKKPGASVKVSCKASGYTFNSYGISWVRQAPGQGLEWMGWISSHNGNSHYVQKFQGRVSMTTDTSTSTAYMELRSLRSDDTAVYYCARHSYTTSWYGGFDYWGQGTLVTVSS
VL: B1 VL with V29F, V30S, K45Q, T69S, S91A, F96L, L98F, P100G, D105E
notes: Human IgG4 Fc (H4H)
B4: H4H9675P (antibody, human IgG4, V domains shown)
VH: EVQLVESGGNLEQPGGSLRLSCTASGFTFSRSAMNWVRRAPGKGLEWVSGISGSGGRTYYADSVKGRFTISRDNSKNTLYLQMNSLSAEDTAAYYCAKDSYTTSWYGGMDVWGHGTTVTVSS
VL: DIQMTQSPSSVSASVGDRVTITCRASQGIFSWLAWYQQKPGKAPKLLIYAASSLQSGVPSRFSGSGSGTDFTLTISSLQPEDFAIYYCQQANSVPITFGQGTRLEIK
notes: Human IgG4 Fc (H4H)
B5: H4H9667P (antibody, human IgG4, V domains shown)
VH: EVQLVESGGGLVQPGGSLRLSCAASGFTFSTYSMHWVRQAPGKGLEYVSTINNNGDTTYYADSVKGRFTISRDNSKNTLYLQLGSLRPEDMAVYYCARQTYTSSWYGGFDSWGQGTLVTVSS
VL: B1 VL with V29I, V30T, S53N, S76T, S91A, F94L, L98F
notes: Human IgG4 Fc (H4H)
B6: H4H9671P (antibody, human IgG4, V domains shown)
VH: EVQLVESGGGLVQPGGSLRLSCAASGFTLRSYFMTWVRQVPGKGLEGVSAISGISGGTYYTDSVKGRFTISRDNSKNTLFLQMNSLRAEDTAVYFCARTVYSSSYYGGFQHWGQGTLVTVSS
VL: B1 VL with A13V, V29I, V30S, A50V, S91T, F96L, L98F, P100G, D105E
notes: Human IgG4 Fc (H4H)
B7: H1M9566N (antibody, mouse IgG1, V domains shown)
VH: EVQLLESGGDLVQPGGSLRLSCAASGFTFSSYAMSWVRQAPGKGLEWVSVISGSGSSTDYADSVKGRFTISRDNSRDTLHLQMNSLRAEDTAVYYCAKTFYYFYGLDVWGQGTTVTVSS
VL: DIQMTQSPSSLSASLRDRVTITCRASQGISNYLAWYQQKPGKVPKVLIYAASTLQSGVPSRFSGSGSGTVFTLTISSLQTEDVATYYCQKYSSAPFTFGPGTKVDIK
notes: Human variable domains, mouse IgG1 Fc (H1M)

These binders were tested against T2, pre-formed complex of hIL-33 and captured hST2-MMH (human, UniProt O95760 112-270) (assay: SPR Biacore T-200, 25C).
T2 construct: Ligand-receptor complex on the sensor: hST2-MMH captured by anti-myc mAb and saturated with 100 nM hIL-33; also called hIL-33 pre-complexed with hST2-MMH
Experimental: (§1) The ability of anti-IL-33 antibodies to bind to a pre-formed complex of IL-33 with ST2 was tested using Biacore T-200 instrument equipped with a real-time surface plasmon resonance biosensor. The experiment was performed at 25° C. with a running buffer composed of 0.01M HEPES pH 7.4, 0.15M NaCl, 3 mM EDTA, and 0.05% v/v Surfactant Tween-20 (HBS-ET). […] The captured hST2-MMH surface was then saturated by injecting 100 nM of human IL-33 (hIL-33; R&D Systems, #3625-IL-010/CF) for 3 minutes followed by a 3 minute injection of a 100 nM solution of the anti-IL-33 monoclonal antibody. The real-time binding response was monitored during the entire course of the experiment, and the observed binding response at 3 minutes after injection of anti-IL-33 antibody to the pre-formed complex of hIL-33 and captured hST2-MMH was recorded and tabulated and shown in Table 7. No non-specific binding of anti-IL-33 monoclonal antibody to the anti-myc tag capture surface was observed.

| Binder | binding result |
| --- | --- |
| B1 | no binding (tested: 100 nM) |
| B2 | no binding (tested: 100 nM) |

These binders were tested against T1, human IL-33 (R&D Systems, …) (assay: cell-based or functional assay).

| Binder | IC50, blocking of human basophil degranulation induced by 100 pM human IL-33, donor 655687 [M] | IC50, blocking of human basophil degranulation induced by 100 pM human IL-33, donor 655688 [M] |
| --- | --- | --- |
| B3 | 5.79e-10 | 4.47e-10 |
| B4 | 1.33e-10 | 9.71e-11 |

Target: T1, human IL-33 (R&D Systems, …)
Test: cell-based or functional assay
Remark: another data set of the same source

| Binder | IC50, blocking of IFN-γ release from human PBMC induced by 260 pM hIL-33, donor #603486 [M] | IC50, blocking of IFN-γ release from human PBMC induced by 260 pM hIL-33, donor #603487 [M] |
| --- | --- | --- |
| B3 | 1.25e-09 | 2.71e-09 |
| B1 | 9.64e-10 | 3.02e-09 |
| B2 | 1.04e-08 | 2.34e-08 |
| B5 | 8.07e-09 | 1.88e-08 |
| B6 | 2.97e-09 | 8.62e-09 |
| B4 | 1.75e-10 | 4.71e-10 |

Each binder was assayed against T2, pre-formed complex of hIL-33 and … (assay: SPR 25C, 100 nM mAb over hIL-33/hST2-MMH complex).
Experimental: as §1

| Binder | Antibody Binding Response (RU) |
| --- | --- |
| B7 | 13 |
| B3 | -1 |
| B1 | 0 |
| B2 | 0 |
| B5 | -1 |
| B6 | -1 |
| B4 | -1 |

Each binder was assayed against T1, human IL-33 (R&D Systems, …) (assay: SPR 25C pH7.4, mAb captured; lower limit, kd fixed).
Experimental: (§2) Equilibrium dissociation constants (KD values) for IL-33 binding to purified anti-IL-33 monoclonal antibodies were determined using a real-time surface plasmon resonance biosensor using a Biacore 4000 instrument. The Biacore sensor surface was first derivatized by amine coupling with either a polyclonal rabbit anti-mouse antibody (GE, # BR-1008-38) or with a monoclonal mouse anti-human Fc antibody (GE, # BR-1008-39) to capture anti-IL-33 monoclonal antibodies expressed with mouse or with human IgG4 constant regions, respectively. All Biacore binding studies were performed in 0.01M ADA pH 7.4, 0.15M NaCl, 3 mM EDTA, and 0.05% v/v Surfactant Tween-20 (ABS-ET running buffer). […] Association of either hIL-33 or MfIL-33-6His to the captured monoclonal antibody was monitored for 4 minutes and their dissociation in ABS-ET running buffer was monitored for 10 minutes. […] To achieve this, association of either hIL-33 or MfIL-33-6His to the captured monoclonal antibody was monitored for 4 minutes in ABS-ET running buffer. Following a 30 second dissociation of either hIL-33 or MfIL-33-6His in ABS-ET running buffer, ABS-ET pH6 buffer was injected for 3 minutes, and the analyte dissociation under the low-pH conditions was measured. […] Binding dissociation equilibrium constants (KD) and dissociative half-lives (t½) were calculated from the kinetic rate constants as: […]

| Binder | t½ [h] |
| --- | --- |
| B7 | ≥ 19.2 |

These binders were tested against T1, human IL-33 (R&D Systems, …) (assay: SPR 25C pH7.4, mAb captured; upper limit, kd fixed).
Experimental: as §2

| Binder | Kd [nM] |
| --- | --- |
| B7 | ≤ 0.0788 |

Each binder was assayed against T1, human IL-33 (R&D Systems, …) (assay: BLI; hIL-33 pre-mixed with mAb-2 Isotype control 1).
Experimental: Binding competition between a panel of different anti-IL-33 monoclonal antibodies was determined using a real time, label-free bio-layer interferometry assay on an Octet® HTX biosensor (ForteBio, A Division of Pall Life Sciences). The experiment was performed at 25° C. using a buffer of 0.01M HEPES pH7.4, 0.15M NaCl, 0.05% v/v Surfactant Tween-20, and 0.1 mg/ml BSA (HBS-ET kinetics buffer) with the plate shaking at a speed of 1000 rpm. To assess whether two antibodies were able to compete with one another for binding to human IL-33, a pre-mix assay format was used where 100 nM of human IL-33 (R&D Systems; #3625-IL-010/CF) was pre-mixed with 500 nM of different anti-IL-33 monoclonal antibodies (subsequently referred to as mAb-2) for at least 2 hours prior to running the binding competition assay. […] Following the capture step, unoccupied anti-mouse Fc polyclonal antibody and anti-human Fc polyclonal antibody on the Octet biosensors were saturated by submerging them for 4 minutes into wells containing 200 μg/mL of a non-specific monoclonal antibody with a mouse Fc or with a human Fc, respectively. Finally, the Octet biosensors were immersed for 4 minutes into wells containing the pre-mixed samples of 100 nM of human IL-33 and 500 nM of mAb-2. At the end of each cycle, the non-covalently captured anti-IL-33 antibodies along with the bound pre-complex of human IL-33 and mAb-2 were removed from the biosensors using three alternate 20 second immersions into 10 mM HCl followed by submerging into HBS-ET kinetics buffer. The biosensors were washed in HBS-ET kinetics buffer in between every step of the experiment. The real-time binding response was monitored during the binding events, and the binding response (in units of nm) at the end of every step was recorded.

| Binder | mAb-1 Binding to the Pre-complex of mAb-2 & hIL-33 [nm] |
| --- | --- |
| B7 | 0.06 |
| B3 | 0.17 |
| B1 | 0.19 |
| B2 | 0.14 |
| B5 | 0.23 |
| B6 | 0.13 |
| B4 | 0.13 |

What follows are binders tested against T1, human IL-33 (R&D Systems, …) (assay: SPR 25C pH7.4, mAb captured; no dissociation seen, kd fixed).
Experimental: as §2

| Binder | koff [s⁻¹] |
| --- | --- |
| B7 | ≤ 1e-05 |
